From article PMC5100581 come the findings set out here.

For this experiment, the target named is His-tagged Gins51 wild type (Thermococcus kodakaraensis). The experiment in a line: SPR.

One may read the Kd as the concentration at which binding is half-saturated. Read a high Kd as weaker binding. With GAN mutant F55A/L57A (enzyme), the dissociation constant Kd was found to be 230 nM.
